Results published in patent publication US20200384081A1 (Janssen / Centocor, published 2020).
Residue numbers refer to the chain shown, from its start. Each block holds one molecule with its values, some of them ahead of it.

Columns and labels:
IL-12 (mouse) (mouse) = IL-12 (mouse) (mouse) (UniProt P43432); experiment: cell-based or functional assay; conditions: scale: fold more effective than the anti-p35 mAb
[1] = biological target: T1, human p40 single mutant L40T (human, UniProt P29460 23-328); experiment: capture assay, relative binding affinity of the mAb to p40 muteins (FIG. 4)
T1 construct: HEK293E supernatant
T1 sequence: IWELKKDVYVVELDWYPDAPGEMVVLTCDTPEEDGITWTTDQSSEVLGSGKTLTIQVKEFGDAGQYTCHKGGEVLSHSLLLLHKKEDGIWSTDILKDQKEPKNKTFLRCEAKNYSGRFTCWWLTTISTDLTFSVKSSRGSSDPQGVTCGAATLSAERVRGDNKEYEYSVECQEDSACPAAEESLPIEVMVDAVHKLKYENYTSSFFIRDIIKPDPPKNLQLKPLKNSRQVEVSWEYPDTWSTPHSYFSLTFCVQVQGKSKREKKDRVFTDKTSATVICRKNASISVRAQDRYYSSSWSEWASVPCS
Protocol: (§1) In brief, MSD high bind plates (Meso Scale Discovery, MD) were coated with 5 μl of a capture monoclonal antibody (5 μg/ml) at room temperature for 1 hour. […] One-hundred and fifty (150) μl of 5% MSD Blocker A buffer was added to each well and incubated for 1 hr at room temperature. Plates were washed three times with 0.1 M HEPES buffer (pH 7.4). These protein-charged ELISA plates were incubated with 25 μl of different transiently expressed p40 mutant supernatants (1:10 dilution with 0.1 M HEPES buffer, pH 7.4) for 1 hr at room temperature. The plates were washed three times with 0.1 M HEPES buffer (pH 7.4). Twenty-five (25) μ1 of different concentrations of MSD Sulfo-TAG labeled p40 mAb, ranging from 0 to 20 μg/ml, were dispensed to micro-wells. After incubation for 2 hrs shaking at room temperature, plates were washed 3 times with 0.1 M HEPES buffer (pH 7.4). One hundred and fifty (150) μ1 of diluted MSD Read Buffer T was dispensed into each well and the plates were analyzed with a SECTOR imager (MSD).

[2] = biological target: T2, human p40 single mutant M23T (human, UniProt P29460 23-328); experiment: as above
T2 construct: HEK293E supernatant
T2 sequence: T1 sequence with M23T, T40L
Protocol: as §1

[3] = biological target: T3, human p40 single mutant E45A (human, UniProt P29460 23-328); experiment: as above
T3 construct: HEK293E supernatant
T3 sequence: T1 sequence with T40L, E45A
Protocol: as §1

[4] = biological target: T4, human p40 single mutant S43R (human, UniProt P29460 23-328); experiment: as above
T4 construct: HEK293E supernatant
T4 sequence: T1 sequence with T40L, S43R
Protocol: as §1

Sequence of IL-12 (mouse) (mouse) (P43432 23-335 limits assumed, chain 1 of 2): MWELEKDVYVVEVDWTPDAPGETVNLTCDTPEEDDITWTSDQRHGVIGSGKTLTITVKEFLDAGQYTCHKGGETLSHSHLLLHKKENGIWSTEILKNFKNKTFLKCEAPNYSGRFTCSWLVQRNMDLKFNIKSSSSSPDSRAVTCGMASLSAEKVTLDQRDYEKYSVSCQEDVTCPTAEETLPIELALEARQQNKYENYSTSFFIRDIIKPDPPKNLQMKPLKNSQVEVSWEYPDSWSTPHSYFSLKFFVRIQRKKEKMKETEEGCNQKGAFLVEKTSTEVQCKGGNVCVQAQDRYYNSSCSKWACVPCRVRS
Sequence of IL-12 (mouse) (mouse) (P43431 23-215 limits assumed, chain 2 of 2, further chain): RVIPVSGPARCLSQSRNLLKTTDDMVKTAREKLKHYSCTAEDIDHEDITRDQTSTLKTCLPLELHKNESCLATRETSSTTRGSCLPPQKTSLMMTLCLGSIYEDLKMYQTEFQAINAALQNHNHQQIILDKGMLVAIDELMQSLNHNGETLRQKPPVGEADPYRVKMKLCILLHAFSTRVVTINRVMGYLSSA

- neutralizing IL-12 (in vitro neutralization studies) (IL-12 (mouse) (mouse)): 5
Molecule: C17.8 (rat anti-mouse IL-12/IL-23p40, IgG2a) (antibody)

- reduction of binding [1]: ~40%
- reduction of binding [2]: ~40%
- reduction of binding [3]: ~70%
- reduction of binding [4]: ~40%
B1: IL-12/IL-23p40 mAb (antibody, V domains shown)
VH: EVQLVQSGAEVKKPGESLKISCKGSGYSFTTYWLGWVRQMPGKGLDWIGIMSPVDSDIRYSPSFQGQVTMSVDKSITTAYLQWNSLKASDTAMYYCARRRPGQGYFDFWGQGTLVTVSS
VL: DIQMTQSPSSLSASVGDRVTITCRASQGISSWLAWYQQKPEKAPKSLIYAASSLQSGVPSRFSGSGSGTDFTLTISSLQPEDFATYYCQQYNIYPYTFGQGTKLEIKR
notes: Fully human monoclonal IgG from a mammalian cell line, purified on protein A; also called IL-12/23p40 mAb; IL-12 p40 antibody
